Blank lines part the entries; values can stand above or below the compound they belong to. Non-standard residues stand in square brackets, D forms with d. No end group written: not given here. *: point of attachment. Phe(3-CF3) = N[C@@H](Cc1cccc(C(F)(F)F)c1)C(=O)O; Tfa = O=C(C(F)(F)F)*
Columns and labels:
Type in all cases: biochemical
[1] = target: T1, protein Ser/Thr kinase AKT1 (Homo sapiens, UniProt P31749); test: 19F NMR assay of phosphorylation of CF3-labeled peptide by AKT1
T1 construct: baculovirus coding for the full length protein fused to GST at the N-terminus; GST (N, cleaved yes); made in house; host or cells: Sf21 insect cells (baculovirus), treated with okadaic acid before harvest
Method: D2O was added to the solutions (8% final concentration) for the lock signal.

[2] = target: T2, trypsin from bovine pancreas (Bos taurus, UniProt P00760); test: 19F NMR assay of cleavage of CF3-labeled peptide by trypsin; conditions: 15 nM trypsin
T2 construct: purchased Roche Molecular Biochemical 1418025; host or cells: bovine pancreas
T2 sequence (P00760 24-246): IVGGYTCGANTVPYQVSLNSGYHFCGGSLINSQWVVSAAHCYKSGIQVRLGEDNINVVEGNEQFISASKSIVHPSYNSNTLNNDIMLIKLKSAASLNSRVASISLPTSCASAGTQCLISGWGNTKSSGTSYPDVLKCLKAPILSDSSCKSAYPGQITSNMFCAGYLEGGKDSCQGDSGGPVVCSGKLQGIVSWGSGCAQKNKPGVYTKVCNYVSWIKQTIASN
Method: FIG. 4 provides the screening of proteases, where the substrate is the peptide of Seq ID NO:2 and the protein is trypsin from bovine pancreas. ^19F NMR spectra for the peptide in the absence (a) and in the presence (b–e) of trypsin. The reaction was run at 22° C. and quenched after 30 minutes with the addition of 0.5 mM phenylmethylsulfonyl fluoride (PMSF). The reaction was performed in the absence of compound (b), in the presence of a five compound mixture (2-amino-6 methylquinazolin-4 ol, ethyl 2-quinoxalinecarboxylate, 5-methyl-benzimidazole, methyl isoquinoline-3-carboxylate, and leupeptin) (c), in the presence of the same mixture without leupeptin (d), and in the presence of only leupeptin (e). The protein, peptide, and compound concentrations were 15 nM, 30 μM, and 20 μM, respectively. A total of 128 scans with 2.8 s repetition time were recorded for each spectrum (6 minute measuring time). Pep and C-pep are the substrate and the product respectively.
The method of the present invention can also be applied to many different types and subtypes of enzymes (e.g. proteases, phosphatases, ligases, etc.). […]
All NMR spectra were recorded at 20° C. with a 600 NMR spectrometer operating at a ^19F Larmor frequency of 564 MHZ. […]

[3] = target: T3, p21-activated kinase PAK4 (Homo sapiens, UniProt O96013); test: 19F NMR assay of CF3-labeled peptide with PAK4 (protein function)
T3 construct: GST (cleaved yes); made in house; host or cells: Escherichia coli
Method: FIG. 5 provides the 19F spectra of the peptide of Seq ID NO:2 in the presence of three different proteins, 25 nM AKT1 (FIG. 5A top), 15 nM trypsin (FIG. 5B middle) and 150 nM PAK4 (FIG. 5C bottom). […] The chemical shift of the cleaved peptide is quite different when compared to the chemical shift of the phosphorylated peptide.
In another embodiment of the present invention, three different proteins, AKT1, Trypsin, and p-21 activated protein (PAK4) were incubated with the CF3-labeled peptide of Seq ID NO:2. […] A higher concentration of the protein with unknown function and a longer incubation period may be required because the substrate may not be optimal for the protein with unknown function. The speed of the enzymatic reaction of PAK4 is only 1/22 of the speed of AKT1, therefore, the period of time for the reaction in the presence of PAK4 was longer than the period of time for the reaction in the presence of AKT1. The method of the present invention is also applicable to activated enzymes.
The serine/threonine p21-activated kinase PAK4 was expressed as a GST fusion protein in Escherichia coli and purified to homogeneity after removal of the GST tag.
All NMR spectra were recorded at 20° C. with a 600 NMR spectrometer operating at a ^19F Larmor frequency of 564 MHZ. A 5 mm probe tunable to either 19F or ^1H frequency was used. […]

T1 sequence (P31749 whole entry, the tested form may be a part): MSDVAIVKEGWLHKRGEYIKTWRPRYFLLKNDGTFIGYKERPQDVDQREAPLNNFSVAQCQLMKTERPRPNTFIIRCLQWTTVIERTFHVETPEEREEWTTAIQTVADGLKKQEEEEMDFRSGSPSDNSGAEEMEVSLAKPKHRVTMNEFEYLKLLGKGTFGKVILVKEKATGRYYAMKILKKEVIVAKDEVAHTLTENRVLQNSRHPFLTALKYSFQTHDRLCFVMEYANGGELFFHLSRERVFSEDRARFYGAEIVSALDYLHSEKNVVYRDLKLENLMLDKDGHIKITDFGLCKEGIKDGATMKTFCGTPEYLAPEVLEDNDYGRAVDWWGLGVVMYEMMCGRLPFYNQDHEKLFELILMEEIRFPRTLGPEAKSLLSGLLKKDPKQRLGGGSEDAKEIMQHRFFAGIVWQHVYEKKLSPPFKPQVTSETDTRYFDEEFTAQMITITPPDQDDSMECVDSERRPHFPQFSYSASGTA
T3 sequence (O96013 whole entry): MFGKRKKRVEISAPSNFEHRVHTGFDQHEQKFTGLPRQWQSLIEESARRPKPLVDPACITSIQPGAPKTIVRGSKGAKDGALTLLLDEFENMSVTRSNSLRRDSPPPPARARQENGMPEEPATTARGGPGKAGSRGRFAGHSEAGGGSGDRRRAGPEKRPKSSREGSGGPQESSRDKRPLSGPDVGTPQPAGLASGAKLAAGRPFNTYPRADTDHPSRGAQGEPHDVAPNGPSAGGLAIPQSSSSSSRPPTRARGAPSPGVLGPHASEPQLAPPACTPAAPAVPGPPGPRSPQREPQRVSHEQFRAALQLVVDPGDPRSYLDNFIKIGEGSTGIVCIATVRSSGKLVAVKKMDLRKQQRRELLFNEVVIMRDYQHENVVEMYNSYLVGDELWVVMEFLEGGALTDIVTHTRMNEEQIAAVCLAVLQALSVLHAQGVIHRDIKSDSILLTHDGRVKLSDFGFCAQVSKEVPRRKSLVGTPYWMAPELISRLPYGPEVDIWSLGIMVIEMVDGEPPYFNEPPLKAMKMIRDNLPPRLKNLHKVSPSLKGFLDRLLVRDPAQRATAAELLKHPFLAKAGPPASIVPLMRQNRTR

Compound: O=S(=O)(NCCNC/C=C/c1ccc(Br)cc1)c1cccc2cnccc12 [H89]
- inhibition of peptide phosphorylation ([1]; reaction in the presence of only H89 (deconvolution of five molecule mixture)): inhibitory effect over peptide phosphorylation

Compound: CN[C@@H]1C[C@H]2O[C@@](C)([C@@H]1OC)n1c3ccccc3c3c4c(c5c6ccccc6n2c5c31)C(=O)NC4 [staurosporine]
- formation of phosphorylated peptide in the presence of inhibitor ([1]; 10 μM Staurosporine, 50 nM protein, 30 μM peptide, 131 μM ATP): did not result in any formation of phosphorylated peptide

- time after which the enzymatic reaction is complete ([1]; 50 nM protein, 30 μM peptide, 131 μM ATP, no inhibitor): 149 min
Compound: CF3—CO-ARKRERAYSFGHHA (Tfa-ARKRERAYSFGHHA) [CF3-labeled peptide of Seq ID NO:1, AKTide, 14 aminoacid peptide labeled with CF3 by N-terminal capping with trifluoroacetic anhydride]

Compound: CC(=O)N[C@@H](CC(C)C)C(=O)N[C@@H](CC(C)C)C(=O)N[C@H](C=O)CCCNC(=N)N [leupeptin, reference compound]
- inhibition of peptide cleavage by trypsin (cleaved peptide signal) ([2]; 20 μM compound, 30 μM peptide, 22° C., quenched after 30 minutes): missing cleaved peptide signal

- Km ([1]; 40 nM protein, 30 μM substrate peptide, 22° C., quenched after 60 minutes, read-out: KM / binding constant for ATP): 89 µM
Compound: Nc1ncnc2c1ncn2[C@@H]1O[C@H](COP(=O)(O)OP(=O)(O)OP(=O)(O)O)[C@@H](O)[C@H]1O [ATP]

- speed of the enzymatic reaction of PAK4 relative to AKT1 ([3]; ratio to speed of AKT1): 1/22
- substrate quality for trypsin [2]: good substrate
- substrate quality for AKT1 ([1]; 25 nM AKT1): good substrate
Compound: ARKRERAF(3-CF3)SFGHHA (ARKRERA[Phe(3-CF3)]SFGHHA) [peptide of Seq ID NO:2, CF3-labeled peptide substrate for trypsin, AKT1 and PAK4]
- 19F signal after reaction with PAK4 ([3]; 150 nM PAK4): appearance of a signal at the chemical shift of the phosphorylated peptide

From patent US7255985B2, “Fluorine NMR spectroscopy for biochemical screening” (Pfizer Italia S.r.l., priority 2003, dated 2007)
